Data set [1] relates to Arabidopsis thaliana T1 plants. The data set can be described thus: Mesotrione tolerance of transgenic Arabidopsis thaliana T1 plants (spray, bleached leaf area grade, damage score). The settings on record: Table 12; for Classification and statistics of the grade of pesticide damage Grade 0: number of plants at grade 0; for Classification and statistics of the grade of pesticide damage Grade 1: number of plants at grade 1; for Classification and statistics of the grade of pesticide damage Grade 2: number of plants at grade 2; for Classification and statistics of the grade of pesticide damage Grade 3: number of plants at grade 3; for Scores: pesticide damage score. Further details: Scores: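 damage score 0-100 computed as Σ(N×S)/(T×M)×100 over grades 0-3 with higher meaning more damage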. The data set is classed as in vivo. A digest of the protocol: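 Damage was assessed by bleaching grade (0 none; 1 <50%; 2 >50%; 3 100% of leaf area) one week after spraying. Sprays on 18-day-old T1 and wild-type plants used field-rate multiples: topramezone 25–200, isoxaflutole 35–280, mesotrione 52.5–420 g ai/ha.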

Data set [2] has as its system Arabidopsis thaliana T1 plants. In words: Isoxaflutole tolerance of transgenic Arabidopsis thaliana T1 plants (spray, bleached leaf area grade, damage score).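 As to Scores: Weighted damage index from 0 to 100 where higher means more damage.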 The data set is classed as in vivo. The following applies: Table 11; for Classification and statistics of the grade of pesticide damage Grade 0: number of plants at grade 0; for Classification and statistics of the grade of pesticide damage Grade 1: number of plants at grade 1; for Classification and statistics of the grade of pesticide damage Grade 2: number of plants at grade 2; for Classification and statistics of the grade of pesticide damage Grade 3: number of plants at grade 3; for Scores: pesticide damage score. The source says:
T1 transformants were initially selected from the untransformed seeds using a glufosinate selection scheme. The Arabidopsis thaliana T1 plants (AsHPPD-02) into which the AsHPPD-02 nucleotide sequence was introduced, the Arabidopsis thaliana T1 plants (AsHPPDm-F372A-02) into which the AsHPPDm-F372A-02 nucleotide sequence was introduced, the Arabidopsis thaliana T1 plants (AsHPPDm-F383W-02) into which the AsHPPDm-F383W-02 nucleotide sequence was introduced, the Arabidopsis thaliana T1 plants (AsHPPDm-F372A-F383W-02) into which the AsHPPDm-F372A-F383W-02 nucleotide sequence was introduced, the Arabidopsis thaliana T1 plants (DBN11726N) into which the control recombinant expression vector DBN11726N was introduced, and the wild-type Arabidopsis thaliana plants (CK) (18 days after sowing) were sprayed respectively with topramezone at three concentrations (100 g ai/ha (four-fold field concentration, 4×), 200 g ai/ha (eight-fold field concentration, 8×), and 0 g ai/ha (water, 0×)), isoxaflutole at three concentrations (140 g ai/ha (two-fold field concentration, 2×), 280 g ai/ha (four-fold field concentration, 4×), and 0 g ai/ha (water, 0×)), and mesotrione at three concentrations (210 g ai/ha (two-fold field concentration, […]), 420 g ai/ha (four-fold field concentration, 4×), and 0 g ai/ha (water, 0×)), to determine the tolerance of Arabidopsis thaliana to the herbicides. The degree of damage caused by the herbicide was measured for each plant according to the proportion of bleached leaf area (the proportion of bleached leaf area=bleached leaf area/total leaf area×100%) 7 days after spraying (7 DAT): the case where there is basically no bleached phenotype is defined as grade 0, the case where the proportion of bleached leaf area is less than 50% is defined as grade 1, the case where the proportion of bleached leaf area is more than 50% is defined as grade 2, and the case where the proportion of bleached leaf area is 100% grade is defined as grade 3.
According to the method as described above in point 6 of Example 1, the aforementioned Arabidopsis thaliana T1 plants and wild-type Arabidopsis thaliana plants (CK) (18 days after sowing) were sprayed respectively with topramezone at three concentrations (25 g ai/ha (one-fold field concentration, 1×). 100 g ai/ha (four-fold field concentration, 4×), and 0 g ai/ha (water, 0×)), isoxaflutole at three concentrations (35 g ai/ha (half-fold field concentration, 0.5×). 70 g ai/ha (one-fold field concentration, 1×), and 0 g ai/ha (water, 0×)), and mesotrione at three concentrations (52.5 g ai/ha (half-fold field concentration, 0.5×), 105 g ai/ha (one-fold field concentration, 1×), and 0 g ai/ha (water, 0×)) to detect the tolerance of Arabidopsis thaliana to the herbicides.
According to the method as described above in point 6 of Example 1, the aforementioned Arabidopsis thaliana T1 plants and wild-type Arabidopsis thaliana plants (CK) (18 days after sowing) were sprayed with topramezone at three different concentrations (i.e., 100 g ai/ha (four-fold field concentration, 4×), 200 g ai/ha (eight-fold field concentration, 8×) and 0 g ai/ha (water, 0×)), isoxaflutole at three different concentrations (i.e., 140 g ai/ha (two-fold field concentration, 2×), 280 g ai/ha (four-fold field concentration, 4×) and 0 g ai/ha (water, 0×)), and mesotrione at three different concentrations (i.e., 210 g ai/ha (two-fold field concentration, 2×), 420 g ai/ha (four-fold field concentration, 4×) and 0 g ai/ha (water, 0×)) respectively to detect the herbicide tolerance of Arabidopsis thaliana. […]

B1: AsHPPDm-A111T-F372A-02: nucleotide sequence encoding Avena sativa HPPD with A111T+F372A; vector DBN11781 (nucleic acid)
DNA: ATGCCACCTACTCCAGCTACAGCTACTGGTGCTGCTGCTGCTGCCGTTACTCCTGAGCACGCTGCCAGGTCATTCCCCAGGGTGGTTCGCGTGAACCCCAGATCTGATAGGTTCCCAGTTCTGAGCTTCCACCATGTTGAGCTGTGGTGCGCTGATGCTGCTTCTGCTGCTGGCAGGTTCTCTTTCGCTCTTGGTGCTCCACTCGCTGCTAGATCTGATCTGTCTACAGGAAATAGCGCTCATGCCTCACTCCTGCTTCGCTCAGGTGCTTTGGCCTTCCTCTTCACCGCTCCATATGCTCCCCCACCTCAGGAGGCTGCTACTGCTGCTACTACAGCCTCCATTCCAAGCTTCTCAGCTGATGCCGCTAGAACCTTCGCTGCTGCTCATGGACTTGCCGTGAGGTCTGTTGGTGTTCGCGTGGCTGATGCTGCTGAGGCTTTCAGAGTTTCCGTTGCCGGCGGAGCTAGGCCAGCTTTCGCTCCTGCTGATTTGGGACATGGTTTCGGCCTGGCTGAGGTTGAGCTTTACGGTGACGTGGTTCTCCGCTTCGTGTCTTACCCAGATGAGACTGACCTGCCTTTCCTTCCCGGCTTCGAGAGAGTTTCCTCTCCTGGTGCCGTGGATTACGGCCTGACAAGGTTCGACCACGTGGTTGGAAACGTTCCCGAGATGGCTCCAGTGATCGATTACATGAAGGGCTTCCTTGGATTCCATGAGTTCGCCGAGTTCACTGCTGAGGACGTGGGAACCACTGAGTCCGGTTTGAACTCTGTGGTTCTCGCCAACAATTCTGAGGCTGTTTTGCTCCCTCTGAATGAGCCTGTGCATGGAACCAAGAGGAGAAGCCAGATTCAAACTTACCTGGAGTACCACGGTGGCCCTGGAGTTCAGCATATCGCCCTTGCTTCTAATGATGTGTTGCGCACACTCAGAGAGATGCGCGCCAGAACCCCCATGGGAGGTTTCGAGTTCATGGCCCCACCACAGGCTAAGTACTACGAGGGCGTTAGAAGGATTGCTGGAGACGTGTTGAGCGAGGAGCAGATCAAGGAGTGCCAAGAGCTGGGTGTTCTTGTGGATAGGGATGACCAGGGCGTTCTGCTTCAAATTGCCACTAAGCCAGTGGGCGACCGCCCTACATTCTTCCTTGAGATGATTCAAAGAATCGGCTGCATGGAGAAGGATGAGGTTGGACAGGAGTACCAAAAGGGCGGATGCGGTGGCTTCGGAAAGGGTAACTTCAGCGAGTTGTTCAAGTCAATCGAGGACTACGAGAAGAGCCTCGAGGTGAAGCAGTCAGTGGTTGCCCAAAAGTCCTGA
modifications: AsHPPDm-A111T-F372A-02 Nucleotide Sequence
notes: vector DBN11781
Regarding B1, in data set [1] (mesotrione 210 g ai/ha (2×)), the Resistance evaluation entry is given as “Moderately”; the “Classification and statistics of the grade of pesticide damage Grade 0” value worked out at 5; the “Classification and statistics of the grade of pesticide damage Grade 1” value came out at 8; the “Classification and statistics of the grade of pesticide damage Grade 2” value was 3. In addition, in data set [1] (mesotrione 210 g ai/ha (2×)), the “Classification and statistics of the grade of pesticide damage Grade 3” value is 0; the Scores stood at 29. Besides, in data set [1] (mesotrione 420 g ai/ha (4×)), the Resistance evaluation entry is recorded as “Poorly resistant”; the “Classification and statistics of the grade of pesticide damage Grade 0” value came out at 0; the “Classification and statistics of the grade of pesticide damage Grade 1” value came out at 8; the “Classification and statistics of the grade of pesticide damage Grade 2” value is recorded as 7. Besides, in data set [1] (mesotrione 420 g ai/ha (4×)), the “Classification and statistics of the grade of pesticide damage Grade 3” value was 1; the Scores was determined as 52. For the same molecule, in data set [2] (isoxaflutole 140 g ai/ha (2×)), the Resistance evaluation entry is given as “Moderately”; the “Classification and statistics of the grade of pesticide damage Grade 0” value was determined as 5; the “Classification and statistics of the grade of pesticide damage Grade 1” value is recorded as 8; the “Classification and statistics of the grade of pesticide damage Grade 2” value is 1. In data set [2] (isoxaflutole 140 g ai/ha (2×)), the “Classification and statistics of the grade of pesticide damage Grade 3” value came to 2; the Scores worked out at 33. Also, in data set [2] (isoxaflutole 280 g ai/ha (4×)), the Resistance evaluation result is “Poorly resistant”; the “Classification and statistics of the grade of pesticide damage Grade 0” value was determined as 0; the “Classification and statistics of the grade of pesticide damage Grade 1” value was 0; the “Classification and statistics of the grade of pesticide damage Grade 2” value is given as 16. In addition, in data set [2] (isoxaflutole 280 g ai/ha (4×)), the “Classification and statistics of the grade of pesticide damage Grade 3” value was 0; the Scores was found to be 67.

For the origin of these results see patent publication US20250043302A1, “MUTATED HYDROXYPHENYLPYRUVATE DIOXYGENASE POLYPEPTIDE, AND CODING GENE AND USE THEREOF” (BEIJING DABEINONG BIOTECHNOLOGY CO., LTD., priority 2021, published 2025).
